The results in this text go back to US20110015139A1 (HE HENRY M JACKSON FOUNDATION FOR THE ADVANCEMENT OF …, published 2011).

The target of the experiment is amyloid beta (Aβ) peptide, incorporated in membranes as the Aβ channel. Put plainly: cell-based or functional assay.

On to SGYEVHH [NA4], for which the “EC50 of protection of PC12 cells from Aβ cytotoxicity (LDH release), as a multiple of the EC50 of NAHIS04” value lay within 2 to 3 times.

On to Ac-HHHH-NH2 [NAHIS04 (Ac-His-His-His-His-CONH2)], for which the “concentration required for 50% protection (EC50) of PC12 cells from Aβ cytotoxicity, LDH release assay, 3 days” value is under 1000 nM and the “speed of 50% reduction of the flow of ionic charges, relative to NAHIS02” value was 8 fold.

On to EVHHQKL [NA7], for which the “EC50 of protection of PC12 cells from Aβ cytotoxicity (LDH release), as a multiple of the EC50 of NAHIS04” value was in the range of 2 to 3 times.
